Results published in paper PMC6078998, “Functional activity of the H3.3 histone chaperone complex HIRA requires trimerization of the HIRA subunit” (Nature Communications, 2018).
Substitutions are numbered along the chain they refer to. Each block holds one binder with its values, some of them ahead of it.

Assays:
[1] = target: the molecule itself; experiment: AUC; sedimentation equilibrium of single purified proteins, 4 °C, 280 nm, 2–3 concentrations, multiple speeds; 20 mM Tris pH 8.0, 300 mM NaCl, 1 mM TCEP; Heteroanalysis and SEDPHAT; the constant of HIRA is of a monomer–trimer equilibrium model
[2] = target: T1, CABIN1 full length (FL), recombinant (UniProt Q9Y6J0 1-2220); experiment: SEC; Superose 6 10/300 GL fractionation; ~100 μM HIRA fragment incubated with ~20 μM CABIN1 FL in 500 μl, 30 min at 4 °C; 20 mM Tris pH 8.0, 300 mM NaCl, 1 mM TCEP; settings: both partners purified
T1 construct: theoretical molecular weight printed as 246,352 Da; the discussion says 2200 amino-acid residues; Cloned into pFastBac HTA; No removal of the His tag is described; also called CABIN1 FL; FL His-CABIN1
T1 sequence (Q9Y6J0 whole entry, the tested form may be a part): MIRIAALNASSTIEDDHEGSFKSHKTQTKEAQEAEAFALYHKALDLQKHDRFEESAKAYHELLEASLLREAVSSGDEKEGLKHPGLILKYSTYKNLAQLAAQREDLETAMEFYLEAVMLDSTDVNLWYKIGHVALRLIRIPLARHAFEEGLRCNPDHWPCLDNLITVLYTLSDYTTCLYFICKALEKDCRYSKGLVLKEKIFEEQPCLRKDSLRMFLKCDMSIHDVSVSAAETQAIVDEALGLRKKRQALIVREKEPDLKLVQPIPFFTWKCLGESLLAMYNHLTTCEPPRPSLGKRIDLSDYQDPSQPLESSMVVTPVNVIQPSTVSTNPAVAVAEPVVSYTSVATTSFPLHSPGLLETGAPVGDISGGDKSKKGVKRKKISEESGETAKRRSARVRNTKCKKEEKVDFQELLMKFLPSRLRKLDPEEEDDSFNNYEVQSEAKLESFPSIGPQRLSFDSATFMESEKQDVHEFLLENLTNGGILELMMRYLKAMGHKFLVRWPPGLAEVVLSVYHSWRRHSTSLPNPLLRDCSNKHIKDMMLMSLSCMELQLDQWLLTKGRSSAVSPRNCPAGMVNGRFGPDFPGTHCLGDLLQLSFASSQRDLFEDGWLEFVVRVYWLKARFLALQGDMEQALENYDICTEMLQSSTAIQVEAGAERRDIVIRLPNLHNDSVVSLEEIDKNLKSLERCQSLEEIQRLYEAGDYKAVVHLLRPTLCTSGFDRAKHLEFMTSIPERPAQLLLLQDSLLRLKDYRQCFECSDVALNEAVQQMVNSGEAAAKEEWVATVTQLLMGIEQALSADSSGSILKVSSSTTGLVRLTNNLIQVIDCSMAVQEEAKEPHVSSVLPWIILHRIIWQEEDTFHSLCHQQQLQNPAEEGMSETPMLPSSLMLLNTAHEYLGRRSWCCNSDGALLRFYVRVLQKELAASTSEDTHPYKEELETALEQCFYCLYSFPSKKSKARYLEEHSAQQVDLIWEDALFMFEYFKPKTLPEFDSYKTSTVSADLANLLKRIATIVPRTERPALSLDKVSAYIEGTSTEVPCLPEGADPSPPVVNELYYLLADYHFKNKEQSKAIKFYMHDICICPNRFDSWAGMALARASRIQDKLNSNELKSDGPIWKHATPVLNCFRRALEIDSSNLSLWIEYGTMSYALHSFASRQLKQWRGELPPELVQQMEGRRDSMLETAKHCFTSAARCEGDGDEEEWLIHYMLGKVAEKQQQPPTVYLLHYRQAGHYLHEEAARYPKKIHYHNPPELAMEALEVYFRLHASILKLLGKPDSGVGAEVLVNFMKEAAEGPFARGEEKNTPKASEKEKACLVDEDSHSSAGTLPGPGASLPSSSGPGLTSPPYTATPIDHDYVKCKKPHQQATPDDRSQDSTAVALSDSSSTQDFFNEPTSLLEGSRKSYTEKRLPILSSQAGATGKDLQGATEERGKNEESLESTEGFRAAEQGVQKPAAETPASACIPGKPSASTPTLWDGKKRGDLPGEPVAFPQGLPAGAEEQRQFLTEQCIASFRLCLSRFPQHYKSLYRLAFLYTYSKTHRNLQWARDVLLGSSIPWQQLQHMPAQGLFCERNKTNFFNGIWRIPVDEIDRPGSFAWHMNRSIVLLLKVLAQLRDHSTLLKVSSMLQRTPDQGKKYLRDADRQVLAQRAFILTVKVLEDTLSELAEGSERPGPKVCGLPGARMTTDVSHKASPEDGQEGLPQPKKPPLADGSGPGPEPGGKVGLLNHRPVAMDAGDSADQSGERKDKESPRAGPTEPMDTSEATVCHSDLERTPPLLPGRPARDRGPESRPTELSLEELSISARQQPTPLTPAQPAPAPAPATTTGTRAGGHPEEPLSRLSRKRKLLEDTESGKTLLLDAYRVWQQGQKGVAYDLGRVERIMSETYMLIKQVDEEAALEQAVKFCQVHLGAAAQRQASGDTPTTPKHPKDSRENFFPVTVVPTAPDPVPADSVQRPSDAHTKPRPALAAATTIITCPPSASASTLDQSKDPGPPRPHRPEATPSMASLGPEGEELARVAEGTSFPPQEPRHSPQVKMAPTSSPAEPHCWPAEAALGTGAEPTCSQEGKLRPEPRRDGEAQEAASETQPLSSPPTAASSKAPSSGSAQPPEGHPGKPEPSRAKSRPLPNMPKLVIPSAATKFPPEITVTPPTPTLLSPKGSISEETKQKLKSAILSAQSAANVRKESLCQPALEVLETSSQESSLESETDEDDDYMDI

[3] = target: the molecule itself; experiment: SEC-MALS; HIRA(644–1017) purified in 500 mM NaCl

binding result [2]: binds
B1: recombinant human HIRA(661–1017) (domain or fragment, UniProt P54198 661-1017, looked up)
chain: SPAALTAEKEAMCLSAPALALKLPIPSPQRAFTLQVSSDPSMYIEVENEVTVVGGVKLSRLKCNREGKEWETVLTSRILTAAGSCDVVCVACEKRMLSVFSTCGRRLLSPILLPSPISTLHCTGSYVMALTAAATLSVWDVHRQVVVVKEESLHSILAGSDMTVSQILLTQHGIPVMNLSDGKAYCFNPSLSTWNLVSDKQDSLAQCADFRSSLPSQDAMLCSGPLAIIQGRTSNSGRQAARLFSVPHVVQQETTLAYLENQVAAALTLQSSHEYRHWLLVYARYLVNEGFEYRLREICKDLLGPVHYSTGSQWESTVVGLRKRELLKELLPVIGQNLRFQRLFTECQEQLDILRDK
notes: Theoretical molecular weight of the homotrimer printed as 118,710 Da; also called HIRA trimer; not shown: GST, N-terminal, cleaved
stoichiometry N [1]: 3

binding result [2]: binds
B2: recombinant HIRA(661–1017 + FRL870-871-874AAA) (domain or fragment, human, UniProt P54198 661-1017, looked up)
chain: B1 chain with F210A, R211A, L214A
notes: not shown: GST, N-terminal, cleaved

B3: HIRA(644–1017) (domain or fragment, human)
chain: GRPRKDSRLMPVSLSVQSPAALTAEKEAMCLSAPALALKLPIPSPQRAFTLQVSSDPSMYIEVENEVTVVGGVKLSRLKCNREGKEWETVLTSRILTAAGSCDVVCVACEKRMLSVFSTCGRRLLSPILLPSPISTLHCTGSYVMALTAAATLSVWDVHRQVVVVKEESLHSILAGSDMTVSQILLTQHGIPVMNLSDGKAYCFNPSLSTWNLVSDKQDSLAQCADFRSSLPSQDAMLCSGPLAIIQGRTSNSGRQAARLFSVPHVVQQETTLAYLENQVAAALTLQSSHEYRHWLLVYARYLVNEGFEYRLREICKDLLGPVHYSTGSQWESTVVGLRKRELLKELLPVIGQNLRFQRLFTECQEQLDILRDKLEGSS
notes: Cloned by NdeI/XhoI into pTXB1 (pYHD1); the forward primer has ATG before the first HIRA codon, so a start methionine may stand in front; A Se-Met labelled form was used for phasing only; Theoretical trimer weight printed as 125,815 Da; source: E. coli BL21(DE3), purified (chitin beads, on-column intein cleavage, Superdex 200); not shown: Intein (chitin beads), C-terminal, cleaved
stoichiometry N [3]: 3

binding result [2]: binds
B4: recombinant HIRA(661–1017) Δ873–904 (domain or fragment, human, UniProt P54198 661-1017, looked up)
chain: SPAALTAEKEAMCLSAPALALKLPIPSPQRAFTLQVSSDPSMYIEVENEVTVVGGVKLSRLKCNREGKEWETVLTSRILTAAGSCDVVCVACEKRMLSVFSTCGRRLLSPILLPSPISTLHCTGSYVMALTAAATLSVWDVHRQVVVVKEESLHSILAGSDMTVSQILLTQHGIPVMNLSDGKAYCFNPSLSTWNLVSDKQDSLAQCADFRSSVPHVVQQETTLAYLENQVAAALTLQSSHEYRHWLLVYARYLVNEGFEYRLREICKDLLGPVHYSTGSQWESTVVGLRKRELLKELLPVIGQNLRFQRLFTECQEQLDILRDK
notes: also called loop deletion mutant; not shown: GST, N-terminal, cleaved
stoichiometry N [1]: 3
